Measured values: PMC10397247

Legend:
4H883-AA = target: T1, 4H883-AA; test: two-hybrid library CCmax; conditions: mean of both orientations;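 also: natural log of median RNA to DNA barcode read ratio; higher means stronger binding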
T1 chain: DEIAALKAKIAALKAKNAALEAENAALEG

4H717-AA = target: T2, 4H717-AA; test: two-hybrid library CCmax; conditions: mean of both orientations;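 also: natural log of median RNA to DNA barcode read ratio; higher means stronger binding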
T2 chain: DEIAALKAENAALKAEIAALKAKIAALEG

4H4001-AA = target: T3, 4H4001-AA; test: two-hybrid library CCmax; conditions: mean of both orientations;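 also: natural log of median RNA to DNA barcode read ratio; higher means stronger binding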
T3 chain: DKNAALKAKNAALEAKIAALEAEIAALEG

4H1845-AA = target: T4, 4H1845-AA; test: two-hybrid library CCmax; conditions: mean of both orientations;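 also: natural log of median RNA to DNA barcode read ratio; higher means stronger binding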
T4 chain: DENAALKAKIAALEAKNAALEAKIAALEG

4H967-AA = target: T5, 4H967-AA; test: two-hybrid library CCmax; conditions: mean of both orientations;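 also: natural log of median RNA to DNA barcode read ratio; higher means stronger binding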
T5 chain: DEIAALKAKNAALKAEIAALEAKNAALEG

4H797-AA = target: T6, 4H797-AA; test: two-hybrid library CCmax; conditions: mean of both orientations;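 also: natural log of median RNA to DNA barcode read ratio; higher means stronger binding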
T6 chain: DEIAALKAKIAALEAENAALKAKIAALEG

4H3855-AA = target: T7, 4H3855-AA; test: two-hybrid library CCmax; conditions: mean of both orientations
T7 chain: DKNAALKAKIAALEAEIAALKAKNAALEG

4H687-AA = target: T8, 4H687-AA; test: two-hybrid library CCmax; conditions: mean of both orientations
T8 chain: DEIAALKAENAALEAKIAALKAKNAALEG

4H2442-AA = target: T9, 4H2442-AA; test: two-hybrid library CCmax; conditions: mean of both orientations
T9 chain: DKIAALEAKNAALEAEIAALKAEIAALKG

4H3112-AA = target: T10, 4H3112-AA; test: two-hybrid library CCmax; conditions: mean of both orientations
T10 chain: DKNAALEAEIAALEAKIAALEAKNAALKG

4H3427-AA = target: T11, 4H3427-AA; test: two-hybrid library CCmax; conditions: mean of both orientations
T11 chain: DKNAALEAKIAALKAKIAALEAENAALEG

4H3354-AA = target: T12, 4H3354-AA; test: two-hybrid library CCmax; conditions: mean of both orientations
T12 chain: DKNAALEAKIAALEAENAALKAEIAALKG

4H3782-AA = target: T13, 4H3782-AA; test: two-hybrid library CCmax; conditions: mean of both orientations
T13 chain: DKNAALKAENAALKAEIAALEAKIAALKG

4H918-AA = target: T14, 4H918-AA; test: two-hybrid library CCmax; conditions: mean of both orientations
T14 chain: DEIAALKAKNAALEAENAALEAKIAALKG

4H568-AA = target: T15, 4H568-AA; test: two-hybrid library CCmax; conditions: mean of both orientations
T15 chain: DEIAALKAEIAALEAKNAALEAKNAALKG

4H953-AA = target: T16, 4H953-AA; test: two-hybrid library CCmax; conditions: mean of both orientations
T16 chain: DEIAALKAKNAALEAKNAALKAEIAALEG

4H1446-AA = target: T17, 4H1446-AA; test: two-hybrid library CCmax
T17 chain: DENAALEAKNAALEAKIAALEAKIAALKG

4H370-bA = target: T18, 4H370-bA; test: two-hybrid library CCNG1
T18 chain: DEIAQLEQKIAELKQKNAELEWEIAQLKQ

4H883-bA = target: T19, 4H883-bA; test: two-hybrid library CCNG1
T19 chain: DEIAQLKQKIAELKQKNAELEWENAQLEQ

4H3606-bA = target: T20, 4H3606-bA; test: two-hybrid library CCNG1
T20 chain: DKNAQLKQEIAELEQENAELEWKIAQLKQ

4H72-bA = target: T21, 4H72-bA; test: two-hybrid library CCNG1
T21 chain: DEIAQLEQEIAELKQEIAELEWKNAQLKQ

4H2667-bA = target: T22, 4H2667-bA; test: two-hybrid library CCNG1
T22 chain: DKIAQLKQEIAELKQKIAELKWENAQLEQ

4H687-bA = target: T23, 4H687-bA; test: two-hybrid library CCNG1
T23 chain: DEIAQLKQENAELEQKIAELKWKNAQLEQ

4H3592-bA = target: T24, 4H3592-bA; test: two-hybrid library CCNG1
T24 chain: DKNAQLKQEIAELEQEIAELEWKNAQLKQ

4H953-bA = target: T25, 4H953-bA; test: two-hybrid library CCNG1
T25 chain: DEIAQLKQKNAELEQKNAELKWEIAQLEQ

4H3601-bA = target: T26, 4H3601-bA; test: two-hybrid library CCNG1
T26 chain: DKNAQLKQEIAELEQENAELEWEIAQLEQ

4H1387-bA = target: T27, 4H1387-bA; test: two-hybrid library CCNG1
T27 chain: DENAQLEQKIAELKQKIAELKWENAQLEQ

4H3907-bA = target: T28, 4H3907-bA; test: two-hybrid library CCNG1
T28 chain: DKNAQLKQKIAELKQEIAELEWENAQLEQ

4H1845-bA = target: T29, 4H1845-bA; test: two-hybrid library CCNG1
T29 chain: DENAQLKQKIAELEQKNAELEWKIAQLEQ

4H1328-bA = target: T30, 4H1328-bA; test: two-hybrid library CCNG1
T30 chain: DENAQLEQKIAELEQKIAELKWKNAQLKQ

4H1446-bA = target: T31, 4H1446-bA; test: two-hybrid library CCNG1
T31 chain: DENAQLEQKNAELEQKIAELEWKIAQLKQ

P9A = target: T32, P9A; test: two-hybrid library CCNG1
T32 chain: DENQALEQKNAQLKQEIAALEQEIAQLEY

4H4038-bA = target: T33, 4H4038-bA; test: two-hybrid library CCNG1
T33 chain: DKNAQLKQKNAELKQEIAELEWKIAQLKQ

4H3843-bA = target: T34, 4H3843-bA; test: two-hybrid library CCNG1
T34 chain: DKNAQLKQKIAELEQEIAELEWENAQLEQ

4H607-bA = target: T35, 4H607-bA; test: two-hybrid library CCNG1
T35 chain: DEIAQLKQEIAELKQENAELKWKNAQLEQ

4H454-bH = target: T36, 4H454-bH; test: two-hybrid library CCNG1
T36 chain: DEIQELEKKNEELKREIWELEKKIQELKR

4H2576-bA = target: T37, 4H2576-bA; test: two-hybrid library CCNG1
T37 chain: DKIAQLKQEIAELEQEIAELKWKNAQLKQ

4H968-bN = target: T38, 4H968-bN; test: two-hybrid library CCNG1
T38 chain: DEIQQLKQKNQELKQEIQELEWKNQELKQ

4H1406-bA = target: T39, 4H1406-bA; test: two-hybrid library CCNG1
T39 chain: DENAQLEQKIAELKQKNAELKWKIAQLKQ

4H331-bA = target: T40, 4H331-bA; test: two-hybrid library CCNG1
T40 chain: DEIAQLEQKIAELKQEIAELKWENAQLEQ

4H967-bA = target: T41, 4H967-bA; test: two-hybrid library CCNG1
T41 chain: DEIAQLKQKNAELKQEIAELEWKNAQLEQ

4H3782-bA = target: T42, 4H3782-bA; test: two-hybrid library CCNG1
T42 chain: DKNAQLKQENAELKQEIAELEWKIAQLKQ

4H568-bA = target: T43, 4H568-bA; test: two-hybrid library CCNG1
T43 chain: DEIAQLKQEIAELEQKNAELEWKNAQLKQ

4H462-bA = target: T44, 4H462-bA; test: two-hybrid library CCNG1
T44 chain: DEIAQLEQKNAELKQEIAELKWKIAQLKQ

4H2697-bA = target: T45, 4H2697-bA; test: two-hybrid library CCNG1
T45 chain: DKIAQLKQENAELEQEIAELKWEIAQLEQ

4H3189-bA = target: T46, 4H3189-bA; test: two-hybrid library CCNG1
T46 chain: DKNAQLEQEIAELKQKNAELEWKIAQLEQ

4H2610-bA = target: T47, 4H2610-bA; test: two-hybrid library CCNG1
T47 chain: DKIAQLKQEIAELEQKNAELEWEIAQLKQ

4H1193-bA = target: T48, 4H1193-bA; test: two-hybrid library CCNG1
T48 chain: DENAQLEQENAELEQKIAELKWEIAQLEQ

4H797-bA = target: T49, 4H797-bA; test: two-hybrid library CCNG1
T49 chain: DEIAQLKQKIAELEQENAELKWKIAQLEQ

4H918-bA = target: T50, 4H918-bA; test: two-hybrid library CCNG1
T50 chain: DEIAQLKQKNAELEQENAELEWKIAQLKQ

4H4001-bA = target: T51, 4H4001-bA; test: two-hybrid library CCNG1
T51 chain: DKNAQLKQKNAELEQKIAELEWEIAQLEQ

4H1369-bA = target: T52, 4H1369-bA; test: two-hybrid library CCNG1
T52 chain: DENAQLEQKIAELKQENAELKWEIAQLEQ

Question: For DENAALEAKNAALEAKIAALEAKIAALKG [4H1446-AA], which interaction score (4H883-AA) is on record?
Answer: -1.54

Question: What about the interaction score (4H717-AA) of the same binder?
Answer: -1.15

Question: What about the interaction score (4H4001-AA) of the same binder?
Answer: 2.23

Question: And the interaction score (4H1845-AA)?
Answer: -1.25

Question: And the interaction score (4H967-AA)?
Answer: -1.1

Question: What about the interaction score (4H797-AA) of the same binder?
Answer: -1.49

Question: What about the interaction score (4H3855-AA) of the same binder?
Answer: -0.445

Question: And the interaction score (4H687-AA)?
Answer: -1.79

Question: What about the interaction score (4H2442-AA) of the same binder?
Answer: -1.19

Question: What about the interaction score (4H3112-AA) of the same binder?
Answer: -0.365

Question: What about the interaction score (4H3427-AA) of the same binder?
Answer: -0.719

Question: And the interaction score (4H3354-AA)?
Answer: -1.43

Question: What about the interaction score (4H3782-AA) of the same binder?
Answer: 0.114

Question: What about the interaction score (4H918-AA) of the same binder?
Answer: -1.53

Question: And the interaction score (4H568-AA)?
Answer: -1.7

Question: And the interaction score (4H953-AA)?
Answer: -0.751

Question: And the interaction score (4H1446-AA)?
Answer: 0.267

Question: With DENAQLEQENAELEQKIAELKWEIAQLEQ [4H1193-bA] as the binder, how does the interaction score (4H370-bA) read?
Answer: -1.27

Question: What about the interaction score (4H883-bA) of the same binder?
Answer: -0.805

Question: And the interaction score (4H3606-bA)?
Answer: -0.984

Question: And the interaction score (4H72-bA)?
Answer: -1.83

Question: And the interaction score (4H2667-bA)?
Answer: -0.522

Question: What about the interaction score (4H687-bA) of the same binder?
Answer: -0.956

Question: And the interaction score (4H3592-bA)?
Answer: -0.214

Question: And the interaction score (4H953-bA)?
Answer: -1.01

Question: What about the interaction score (4H3601-bA) of the same binder?
Answer: -0.992

Question: What about the interaction score (4H1387-bA) of the same binder?
Answer: -0.852

Question: What about the interaction score (4H3907-bA) of the same binder?
Answer: -0.444

Question: What about the interaction score (4H1845-bA) of the same binder?
Answer: -0.841

Question: What about the interaction score (4H1328-bA) of the same binder?
Answer: -0.132

Question: What about the interaction score (4H1446-bA) of the same binder?
Answer: -0.515

Question: And the interaction score (P9A)?
Answer: 0.624

Question: And the interaction score (4H4038-bA)?
Answer: 2.35

Question: What about the interaction score (4H3843-bA) of the same binder?
Answer: 0.453

Question: What about the interaction score (4H607-bA) of the same binder?
Answer: -0.928

Question: What about the interaction score (4H454-bH) of the same binder?
Answer: 0.453

Question: And the interaction score (4H2576-bA)?
Answer: 1.08

Question: And the interaction score (4H968-bN)?
Answer: 1.16

Question: And the interaction score (4H1406-bA)?
Answer: -0.0377

Question: What about the interaction score (4H331-bA) of the same binder?
Answer: -1.28

Question: What about the interaction score (4H967-bA) of the same binder?
Answer: -0.577

Question: And the interaction score (4H3782-bA)?
Answer: 1.7

Question: And the interaction score (4H568-bA)?
Answer: -1.33

Question: What about the interaction score (4H462-bA) of the same binder?
Answer: 0.96

Question: What about the interaction score (4H2697-bA) of the same binder?
Answer: -0.731

Question: And the interaction score (4H3189-bA)?
Answer: -0.992

Question: And the interaction score (4H2610-bA)?
Answer: -0.547

Question: And the interaction score (4H1193-bA)?
Answer: -1.02

Question: What about the interaction score (4H797-bA) of the same binder?
Answer: -1.03

Question: What about the interaction score (4H918-bA) of the same binder?
Answer: -1.33

Question: What about the interaction score (4H4001-bA) of the same binder?
Answer: 0.926

Question: And the interaction score (4H1369-bA)?
Answer: -1.1
